The values below come from patent publication US20140356358A1 (Amgen, published 2014).

In experiment [1] the target is T1, human neonatal Fc receptor (hFcRn) (human, UniProt P55899 24-290; P61769 21-119).
T1 construct: Biotinylated in the ELISA, Octet and yeast assays; also called human FcRn; huFcRn
Kind of experiment: phage ELISA pH 6.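 Note: higher score means stronger binding and above about 3 to 5 exceeds background.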 On the technique in general: In an ELISA, binding on a coated surface is turned into a signal by an enzyme label.

Experiment [2] has as its target T1, human neonatal Fc receptor (hFcRn). As to the kind of experiment: phage ELISA pH 7.4.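 Note: higher score means stronger binding and above about 3 to 5 exceeds background.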
The target is the same in experiment [3]. As to the kind of experiment: SPR competition pH 5.5. As for the experimental part:
(§1) Binding of variant Fc-fragments to human and cynomolgus monkey FcRn was tested using a BIAcore® T100 analysis system (GE Healthcare Bio-Sciences AB Private Limited Liability Company, Uppsala, Sweden) at both pH 5.5 and pH 7.4. The test consisted of incubating various concentrations of the variant Fc-fragments or control Fc-fragments with a fixed amount of human or cynomolgus monkey FcRn under binding conditions and subsequently measuring the amount of free, unbound FcRn in these mixtures by binding to a surface (in a flow cell of a CM5 (Biacore) chip) on which an Fc-fragment was immobilized. […] Thus, the amount of unbound FcRn in the mixture was quantitatively ascertained by surface plasmon resonance through use of the BIAcore® T100 analysis system. […] Initially, a group of 23 variant-Fc-fragments (Fc-5-1 being considered a control) identified in the experiments described above were tested for binding to human FcRn.
(§2) To obtain a reasonable signal for the different molecules and conditions tested, different assay conditions were used. For assays at pH 5.5, 10 nM of human or cynomolgus monkey FcRn was mixed with serial dilutions of the variant and control Fc-fragments being tested (which ranged from 0.1˜2,000 nM) and incubated for 1 hour at room temperature in 10 mM sodium acetate, pH 5.5, 150 mM NaCl, 0.005% P20, 0.1 mg/mL BSA. As positive controls, […] human and cynomolgus monkey FcRn were each incubated in the same solution, for the same time, and at the same temperature described immediately above, but without an added Fc-fragment.

For the next experiment, the target named is T2, cynomolgus monkey FcRn (cynomolgus monkey, UniProt Q8SPV9 24-297; Q8SPW0 21-119, limits assumed).
T2 construct: also called Cynomolgus FcRn
T2 sequence (Q8SPV9 24-297 limits assumed, chain 1 of 2): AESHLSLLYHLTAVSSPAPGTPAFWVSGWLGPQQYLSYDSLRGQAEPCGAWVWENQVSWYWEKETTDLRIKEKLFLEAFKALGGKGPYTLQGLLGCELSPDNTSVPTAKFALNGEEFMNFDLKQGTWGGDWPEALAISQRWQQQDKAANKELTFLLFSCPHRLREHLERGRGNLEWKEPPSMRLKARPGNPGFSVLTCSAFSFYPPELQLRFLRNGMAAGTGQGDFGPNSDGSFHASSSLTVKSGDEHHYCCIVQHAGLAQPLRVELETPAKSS
T2 sequence (Q8SPW0 21-119 limits assumed, chain 2 of 2): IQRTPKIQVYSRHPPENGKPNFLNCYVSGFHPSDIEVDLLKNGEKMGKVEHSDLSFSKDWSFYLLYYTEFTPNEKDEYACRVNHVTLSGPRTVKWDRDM
Kind of experiment: SPR competition pH 5.5. As to the method:
as §1, §2

T1 sequence (P55899 24-290 limits assumed, chain 1 of 2): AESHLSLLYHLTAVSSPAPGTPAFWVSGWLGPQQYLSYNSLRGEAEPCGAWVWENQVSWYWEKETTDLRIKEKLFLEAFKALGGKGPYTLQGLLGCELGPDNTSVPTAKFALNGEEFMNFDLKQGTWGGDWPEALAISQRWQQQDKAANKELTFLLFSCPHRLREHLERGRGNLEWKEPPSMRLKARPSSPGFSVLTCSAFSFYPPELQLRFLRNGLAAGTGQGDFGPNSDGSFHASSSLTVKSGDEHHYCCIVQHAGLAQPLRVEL
T1 sequence (P61769 21-119 limits assumed, chain 2 of 2): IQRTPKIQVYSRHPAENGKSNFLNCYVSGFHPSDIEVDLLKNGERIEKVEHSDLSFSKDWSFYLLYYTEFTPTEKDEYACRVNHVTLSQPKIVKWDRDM

B1: variant Fc-fragment Fc-5-57 (other)
chain: EPKSCDKTHTCPPCPAPELLGGPSVFLFPPKPKDTLMISRTPEVTCVVVDVSHEDPEVKFNWYVDGVEVHNAKTKPREEQYNSTYRVVSVLTVLHQDWLNGKEYKCKVSNKALPAPIEKTISKAKGQPREPQVYTLPPSRDELTKNQVSLTCLVKGFYPSDIAVEWESNGGCGKHWHQCGGGQPENNYKTTPPVLDSDGSFFLYSKLTVDKSRWQQGNVFSCSVMHEALHNHYTQKSLSLSPGK
notes: soluble elsewhere
For B1, the ELISA score came out at 57.8 in experiment [1] and 0.3 in experiment [2]. Also, in experiment [3], a half-maximal effect (EC50) was put at 180 nM.

B2: variant Fc-fragment Fc-5-85 (other)
chain: EPKSCDKTHTCPPCPAPELLGGPSVFLFPPKPKDTLMISRTPEVTCVVVDVSHEDPEVKFNWYVDGVEVHNAKTKPREEQYNSTYRVVSVLTVLHQDWLNGKEYKCKVSNKALPAPIEKTISKAKGQPREPQVYTLPPSRDELTKNQVSLTCLVKGFYPSDIAVEWESNGGCIGPFWWCGGGQPENNYKTTPPVLDSDGSFFLYSKLTVDKSRWQQGNVFSCSVMHEALHNHYTQKSLSLSPGK
notes: library L5 isolate
For B2, the EC50 was determined as 18 nM in experiment [3] and 25 nM with cynomolgus monkey FcRn.

B3: variant Fc-fragment Fc-5-55 (other)
chain: EPKSCDKTHTCPPCPAPELLGGPSVFLFPPKPKDTLMISRTPEVTCVVVDVSHEDPEVKFNWYVDGVEVHNAKTKPREEQYNSTYRVVSVLTVLHQDWLNGKEYKCKVSNKALPAPIEKTISKAKGQPREPQVYTLPPSRDELTKNQVSLTCLVKGFYPSDIAVEWESNGGCMQVWGSCGGGQPENNYKTTPPVLDSDGSFFLYSKLTVDKSRWQQGNVFSCSVMHEALHNHYTQKSLSLSPGK
notes: library L5 isolate
Consider B3, for which the EC50 was determined as 49 nM in experiment [3] and 53 nM with cynomolgus monkey FcRn.

B4: variant Fc-fragment Fc-5-60 (other)
chain: EPKSCDKTHTCPPCPAPELLGGPSVFLFPPKPKDTLMISRTPEVTCVVVDVSHEDPEVKFNWYVDGVEVHNAKTKPREEQYNSTYRVVSVLTVLHQDWLNGKEYKCKVSNKALPAPIEKTISKAKGQPREPQVYTLPPSRDELTKNQVSLTCLVKGFYPSDIAVEWESNGGCQKGWVFCGGGQPENNYKTTPPVLDSDGSFFLYSKLTVDKSRWQQGNVFSCSVMHEALHNHYTQKSLSLSPGK
notes: library L5 isolate
Regarding B4, the EC50 in experiment [3] was found to be 67 nM; with cynomolgus monkey FcRn it was 60 nM.

B5: variant Fc-fragment Fc-5-95 (other)
chain: EPKSCDKTHTCPPCPAPELLGGPSVFLFPPKPKDTLMISRTPEVTCVVVDVSHEDPEVKFNWYVDGVEVHNAKTKPREEQYNSTYRVVSVLTVLHQDWLNGKEYKCKVSNKALPAPIEKTISKAKGQPREPQVYTLPPSRDELTKNQVSLTCLVKGFYPSDIAVEWESNGGCDRPVWFCGGGQPENNYKTTPPVLDSDGSFFLYSKLTVDKSRWQQGNVFSCSVMHEALHNHYTQKSLSLSPGK
notes: library L5 isolate
On to B5, for which the EC50 in experiment [3] was determined as 42 nM; with cynomolgus monkey FcRn it was 50 nM.

B6: variant Fc-fragment Fc-5-79 (other)
chain: EPKSCDKTHTCPPCPAPELLGGPSVFLFPPKPKDTLMISRTPEVTCVVVDVSHEDPEVKFNWYVDGVEVHNAKTKPREEQYNSTYRVVSVLTVLHQDWLNGKEYKCKVSNKALPAPIEKTISKAKGQPREPQVYTLPPSRDELTKNQVSLTCLVKGFYPSDIAVEWESNGGCVNTWWSCGGGQPENNYKTTPPVLDSDGSFFLYSKLTVDKSRWQQGNVFSCSVMHEALHNHYTQKSLSLSPGK
notes: library L5 isolate
Turning to B6, the figures for the EC50 (in experiment [3]; in the experiment with cynomolgus monkey FcRn) were 53 nM and 63 nM, respectively.

B7: variant Fc-fragment Fc-5-96 (other)
chain: EPKSCDKTHTCPPCPAPELLGGPSVFLFPPKPKDTLMISRTPEVTCVVVDVSHEDPEVKFNWYVDGVEVHNAKTKPREEQYNSTYRVVSVLTVLHQDWLNGKEYKCKVSNKALPAPIEKTISKAKGQPREPQVYTLPPSRDELTKNQVSLTCLVKGFYPSDIAVEWESNGGCMQMNKWCGGGQPENNYKTTPPVLDSDGSFFLYSKLTVDKSRWQQGNVFSCSVMHEALHNHYTQKSLSLSPGK
notes: soluble elsewhere
As to B7, the ELISA score is 72.7 in experiment [1] and 0.5 in experiment [2]. Also, the EC50 in experiment [3] amounted to 76 nM.

B8: variant Fc-fragment Fc-5-97 (other)
chain: EPKSCDKTHTCPPCPAPELLGGPSVFLFPPKPKDTLMISRTPEVTCVVVDVSHEDPEVKFNWYVDGVEVHNAKTKPREEQYNSTYRVVSVLTVLHQDWLNGKEYKCKVSNKALPAPIEKTISKAKGQPREPQVYTLPPSRDELTKNQVSLTCLVKGFYPSDIAVEWESNGGCNMLWGSCGGGQPENNYKTTPPVLDSDGSFFLYSKLTVDKSRWQQGNVFSCSVMHEALHNHYTQKSLSLSPGK
notes: library L5 isolate
As to B8, the EC50 in experiment [3] turned out to be 25 nM; with cynomolgus monkey FcRn, 31 nM.

B9: variant Fc-fragment Fc-5-110 (other)
chain: EPKSCDKTHTCPPCPAPELLGGPSVFLFPPKPKDTLMISRTPEVTCVVVDVSHEDPEVKFNWYVDGVEVHNAKTKPREEQYNSTYRVVSVLTVLHQDWLNGKEYKCKVSNKALPAPIEKTISKAKGQPREPQVYTLPPSRDELTKNQVSLTCLVKGFYPSDIAVEWESNGGCWGSRSQCGGGQPENNYKTTPPVLDSDGSFFLYSKLTVDKSRWQQGNVFSCSVMHEALHNHYTQKSLSLSPGK
notes: library L5 isolate
B9 returned an EC50 in experiment [3] of 250 nM.

B10: variant Fc-fragment Fc-5-70 (other)
chain: EPKSCDKTHTCPPCPAPELLGGPSVFLFPPKPKDTLMISRTPEVTCVVVDVSHEDPEVKFNWYVDGVEVHNAKTKPREEQYNSTYRVVSVLTVLHQDWLNGKEYKCKVSNKALPAPIEKTISKAKGQPREPQVYTLPPSRDELTKNQVSLTCLVKGFYPSDIAVEWESNGGCMVPFSMCGGGQPENNYKTTPPVLDSDGSFFLYSKLTVDKSRWQQGNVFSCSVMHEALHNHYTQKSLSLSPGK
notes: library L5 isolate
As to B10, the EC50 is 26 nM in experiment [3] and 27 nM in the experiment with cynomolgus monkey FcRn.

B11: variant Fc-fragment Fc-5-64 (other)
chain: EPKSCDKTHTCPPCPAPELLGGPSVFLFPPKPKDTLMISRTPEVTCVVVDVSHEDPEVKFNWYVDGVEVHNAKTKPREEQYNSTYRVVSVLTVLHQDWLNGKEYKCKVSNKALPAPIEKTISKAKGQPREPQVYTLPPSRDELTKNQVSLTCLVKGFYPSDIAVEWESNGGCHSFKHFCGGGQPENNYKTTPPVLDSDGSFFLYSKLTVDKSRWQQGNVFSCSVMHEALHNHYTQKSLSLSPGK
notes: soluble elsewhere
Take B11: the values for the ELISA score in experiment [1] and in experiment [2] were 57.2 and 0.4, respectively. In experiment [3], this molecule returned an EC50 of 210 nM.

B12: variant Fc-fragment Fc-5-92 (other)
chain: EPKSCDKTHTCPPCPAPELLGGPSVFLFPPKPKDTLMISRTPEVTCVVVDVSHEDPEVKFNWYVDGVEVHNAKTKPREEQYNSTYRVVSVLTVLHQDWLNGKEYKCKVSNKALPAPIEKTISKAKGQPREPQVYTLPPSRDELTKNQVSLTCLVKGFYPSDIAVEWESNGGCDGRTKYCGGGQPENNYKTTPPVLDSDGSFFLYSKLTVDKSRWQQGNVFSCSVMHEALHNHYTQKSLSLSPGK
notes: soluble elsewhere
As for B12, the ELISA score in experiment [1] stood at 64.1; in experiment [2] it was 0.5. This molecule returned an EC50 in experiment [3] of 75 nM.

B13: variant Fc-fragment Fc-5-73 (other)
chain: EPKSCDKTHTCPPCPAPELLGGPSVFLFPPKPKDTLMISRTPEVTCVVVDVSHEDPEVKFNWYVDGVEVHNAKTKPREEQYNSTYRVVSVLTVLHQDWLNGKEYKCKVSNKALPAPIEKTISKAKGQPREPQVYTLPPSRDELTKNQVSLTCLVKGFYPSDIAVEWESNGGCAQQWHHEYCGGGQPENNYKTTPPVLDSDGSFFLYSKLTVDKSRWQQGNVFSCSVMHEALHNHYTQKSLSLSPGK
notes: soluble elsewhere
Take B13: the ELISA score in experiment [1] worked out at 54.5; in experiment [2] it was 0.3. The molecule further had an EC50 in experiment [3] of 190 nM.

As usually defined, the EC50 is the midpoint of the concentration-response curve.
